Earlier results in PMC9731471.

Target: podoplanin (Homo sapiens) (UniProt Q86YL7)

Kd: 24 µM
Substance: CLEC-2 (from UniProt Q9P126)
